Source: US20250115680A1 (PROFOUNDBIO US, published 2025)
One block for each binder: values may come before it.

Key:
[1] = molecular target: T1, cynomolgus PTK7 extra-cellular domain (ECD) linked to His tag (cynomolgus monkey, UniProt A0A2K5VNI5 39-712); assay: BLI (Octet RED), antibody on anti-human IgG Fc tips, PTK7 ECD-His 100 to 1.56 nM in solution, 1:1 global fit
T1 construct: extracellular domain; also called cPTK7-his; cynomolgus monkey PTK7-his protein; not shown: His tag
T1 sequence: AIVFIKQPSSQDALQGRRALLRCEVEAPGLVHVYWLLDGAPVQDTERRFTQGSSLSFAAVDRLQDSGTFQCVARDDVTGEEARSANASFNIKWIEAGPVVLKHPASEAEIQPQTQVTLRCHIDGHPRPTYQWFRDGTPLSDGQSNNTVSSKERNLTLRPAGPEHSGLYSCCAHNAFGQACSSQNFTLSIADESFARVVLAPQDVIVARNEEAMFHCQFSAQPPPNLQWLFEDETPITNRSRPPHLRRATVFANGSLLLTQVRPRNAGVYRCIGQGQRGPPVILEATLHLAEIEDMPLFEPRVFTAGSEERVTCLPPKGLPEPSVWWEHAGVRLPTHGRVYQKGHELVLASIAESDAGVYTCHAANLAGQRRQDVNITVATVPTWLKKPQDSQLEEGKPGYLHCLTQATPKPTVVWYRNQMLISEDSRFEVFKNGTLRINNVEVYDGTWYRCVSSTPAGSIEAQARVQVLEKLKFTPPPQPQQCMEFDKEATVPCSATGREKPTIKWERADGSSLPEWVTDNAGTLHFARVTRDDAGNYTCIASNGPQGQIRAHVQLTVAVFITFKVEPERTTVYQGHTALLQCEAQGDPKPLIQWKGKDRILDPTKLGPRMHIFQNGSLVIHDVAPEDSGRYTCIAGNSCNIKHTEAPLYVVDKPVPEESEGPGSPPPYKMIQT
Protocol: (§1) Recombinant proteins consisting of the PTK7 extra-cellular domain (ECD) linked to His tag were purchased from ACRO biosystems. […] Binding assays using varying concentrations from 100 nM down to 1.56 nM of recombinant proteins (human, cynomolgus) in solution were performed using Octet RED (ForteBio). Association time was set at 180 seconds and dissociation time was set at 300 seconds. Binding affinity was calculated using ForteBio Data Acquisition 6.3 software (ForteBio). Affinity was derived by fitting the kinetic data to a 1:1 Langmuir binding model utilizing global fitting algorithms.

[2] = molecular target: T2, human PTK7 extra-cellular domain (ECD) linked to His tag (human, UniProt Q13308 31-704); assay: as above
T2 construct: extracellular domain; also called hPTK7-his; human PTK7-his protein; not shown: His tag
T2 sequence (looked up): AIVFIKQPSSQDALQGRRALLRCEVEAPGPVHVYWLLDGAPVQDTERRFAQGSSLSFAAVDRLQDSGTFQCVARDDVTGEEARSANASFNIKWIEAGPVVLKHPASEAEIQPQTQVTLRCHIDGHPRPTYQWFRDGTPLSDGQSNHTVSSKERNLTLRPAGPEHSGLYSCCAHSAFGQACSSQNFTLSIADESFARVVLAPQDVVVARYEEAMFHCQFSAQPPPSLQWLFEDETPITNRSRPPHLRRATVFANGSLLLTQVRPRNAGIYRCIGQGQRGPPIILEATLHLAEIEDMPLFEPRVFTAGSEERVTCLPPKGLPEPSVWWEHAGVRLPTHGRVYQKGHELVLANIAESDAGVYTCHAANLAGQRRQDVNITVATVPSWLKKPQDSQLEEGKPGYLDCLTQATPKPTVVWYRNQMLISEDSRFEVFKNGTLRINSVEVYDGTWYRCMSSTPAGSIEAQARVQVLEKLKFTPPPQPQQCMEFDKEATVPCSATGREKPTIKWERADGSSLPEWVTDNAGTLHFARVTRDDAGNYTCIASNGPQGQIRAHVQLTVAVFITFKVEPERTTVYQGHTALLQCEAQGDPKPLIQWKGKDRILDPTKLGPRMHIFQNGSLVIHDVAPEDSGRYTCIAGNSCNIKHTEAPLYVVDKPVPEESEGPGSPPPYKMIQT
Protocol: as §1

[3] = molecular target: T3, rat PTK-7 recombinant protein (rat, UniProt A0A8I6ALM9 40-713); assay: ELISA, plate-coated rat PTK7 recombinant protein
T3 construct: also called rat PTK7 protein
Protocol: Binding specificity property was tested by ELISA according to a standard protocol. Specifically, 96-well micro-plates were coated with 2 μg/mL human, cynomolgus, mouse, and rat PTK-7 recombinant protein in PBS 100 μL per well, incubated overnight at 4° C. Plates were washed twice by TBS+0.5% Tween20. 200 μL of blocking buffer (2% BSA in PBS) was added to each well and incubated at 37° C. for 2 hours. Plates were washed using the buffer mentioned above. Serially diluted antibodies were added to the ELISA plate with 100 μL per well and incubated for 1 hour at room temperature. Then plates were washed for 3 times. After washing, HRP conjugated anti-human Fc antibody solution (abcam, ab98624, diluted with blocking buffer) was added to the plate with 100 μl per well. The plates were incubated at room temperature for 1 hour and then washed for 3 times. Then TMB solution was added to plates with 100 μl per well, placed at room temperature for 5-15 mins, then the stop solution (2M H₂SO₄) was added with 50 μl per well. Finally, the result was measured by absorbance at A₄₅₀ and A₆₃₀.

Kd [1]: 0.0904 nM
koff [1]: 2.02e-05 s⁻¹
kon [1]: 224000 M⁻¹ s⁻¹
Kd [2]: ≤ 0.00139 nM
koff [2]: < 1e-07 s⁻¹
kon [2]: 34800 M⁻¹ s⁻¹
B1: humanized antibody 2C5 (antibody, V domains shown)
VH: QVQLVQSGAEVKKPGASVKVSCKASGYTFTDYYINWVRQAPGQGLEWMGDINPYSGGPVYNQKFMARVTMTVDKSINTAYMELSRLRSDDTAVYYCARGDYYGSNYNYWGQGTLVTVSS
VL: EIVLTQSPATLSVSPGERATLSCRASQNIGTSIHWYQQKPGQAPRLLIKFASESISGIPARFSGSGSGTEFTLTISSLQSEDIAVYYCQQSNNWPYTFGQGTKLEIK
notes: Only variable regions are tied to 2C5; It was detected with anti-human Fc, so it has a human Fc

binding result [3]: no binding
B2: humanized antibody 2C8 (antibody, V domains shown)
VH: QIQLVQSGAEVKKPGASVKVSCKASGYTFTTYGMSWVRQAPGQGLEWMGWINTHSGVPTYVDEFKGRVTMTLDTSTSTAYMELSSLRSEDTAVYYCARSPFDYGSRGAWFVYWGQGTTVTVSS
VL: DVVMTQSPDSLAVSLGERATINCRSSQSIVHNSGDTYLEWYQQKPGQPPKLLIYKVSNRFPGVPDRFSGSGSGTDFTLTISSLQAEDLAVYYCFQGSHVPWTFGGGTKVEIK
notes: Only variable regions are tied to 2C8 by name; It was detected with anti-human Fc

binding result [3]: no binding
Kd [1]: < 0.001 nM
koff [1]: < 1e-07 s⁻¹
kon [1]: 54100 M⁻¹ s⁻¹
Kd [2]: 0.798 nM
koff [2]: 0.000132 s⁻¹
kon [2]: 166000 M⁻¹ s⁻¹
B3: humanized antibody 13C4 (antibody, V domains shown)
VH: QVQLVESGGGLVKPGGSLRLSCAASGFAFSTYDMFWIRQAPGKGLEWVSTISSGGGYTYYPGSVKGRFTISRDNAKNSLYLQMNSLRAEDTAVYYCVRPLLRDSYFYFDVWGQGTMVTVSS
VL: EIVMTQSPATLSVSPGERATLSCRASSSVSSSYLHWYQQKPGQAPRLLIFRTSNLASGIPARFSGSGSGTEYTLTISSLQSEDAAVYYCQQYSGYPLTFGQGTKLEIK
notes: Only variable regions are tied to 13C4; It was detected with anti-human Fc
